What all share (assay): BLI
(In BLI a coated tip is dipped into the sample, and binding shifts an interference pattern.)

In data set [1] the target is T1, PfAlba6 Y28A (Plasmodium falciparum 3D7, UniProt Q8I617 1-96, Y28A).
T1 sequence: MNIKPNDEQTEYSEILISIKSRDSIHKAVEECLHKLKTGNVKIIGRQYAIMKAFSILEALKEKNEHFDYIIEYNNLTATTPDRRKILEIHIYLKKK

Data set [2] has as its target T1, PfAlba6 Y28A. This is another data set of the same source.
The target of the next data set is T2, PfAlba6 (Plasmodium falciparum 3D7, UniProt Q8I617).
T2 sequence: T1 sequence with A28Y

Where a chain is given by its changes, count along the chain named. Where two headings read alike, the source gives them in different places.

The values below come from article PMC10981135.

B1: 28 bp dsDNA (C28) (dsDNA)
DNA 1: TGGCGAAAGGGGGTTGTGCTGCAAGGCG
DNA 2: CGCCTTGCAGCACAACCCCCTTTCGCCA
For B1, the Kd stood at 12.1 ± 0.83 nM with PfAlba6 Y28A [1], 10 ± 0.9 nM with PfAlba6 Y28A [2] and 10 ± 0.37 nM with PfAlba6.

As usually defined, the Kd is a measure of binding affinity in units of concentration. A low value points to higher affinity.
